The source of these data is patent US20220195070A1.

Assay [1] concerns the target Anti-hC5 Antibody. Nature of the assay: sandwich ELISA: SKA antibody coated, Anti-hC5 Antibody in pooled human serum; OD spiked / OD blank. In general terms: In an ELISA, binding on a coated surface is turned into a signal by an enzyme label.
For assay [2], the target named is Anti-hC5 Antibody. Nature of the assay: sandwich ELISA: SKA antibody coated, Anti-hC5 Antibody in pooled human serum, then human C5, mouse anti-hC5, anti-mouse-POD; incubation 9 min; blank OD 0.027.
For assay [3], the target named is Anti-hC5 Antibody. Nature of the assay: sandwich ELISA: SKA antibody coated, Anti-hC5 Antibody in pooled human serum, then human C5, mouse anti-hC5, anti-mouse-POD; incubation 8 min; blank OD 0.026.
The target of assay [4] is Anti-hC5 Antibody. Nature of the assay: SPR (Biacore T200), 25 C, pH 7.4; SKA antibody captured by anti-rabbit IgG, Anti-hC5 Antibody injected 0-800 nM. In general terms: SPR reads the build-up and loss of mass on a sensor chip optically.
The target of assay [5] is Anti-hC5 Antibody. Nature of the assay: sandwich ELISA: SKA antibody coated, Anti-hC5 Antibody in pooled human serum, then human C5, mouse anti-hC5, anti-mouse-POD; incubation 11 min; blank OD 0.027.
In assay [6] the target is Anti-hC5 Antibody. The assay can be described thus: sandwich ELISA: SKA antibody coated, Anti-hC5 Antibody in pooled human serum, then human C5, mouse anti-hC5, anti-mouse-POD; incubation 21 min; blank OD 0.032.
Assay [7] addresses Anti-hC5 Antibody. The assay can be described thus: SPR (Biacore T200), 25 C, pH 7.4; SKA antibody captured by anti-rabbit IgG, Anti-hC5 Antibody injected 0-800 nM; *reliability might be low.
In assay [8] the target is Anti-hC5 Antibody. Nature of the assay: sandwich ELISA: SKA antibody coated, Anti-hC5 Antibody in pooled human serum, then human C5, mouse anti-hC5, anti-mouse-POD; incubation 16 min; blank OD 0.030.
In assay [9] the target is Anti-hC5 Antibody. The assay can be described thus: sandwich ELISA: SKA antibody coated, Anti-hC5 Antibody in pooled human serum, then human C5, mouse anti-hC5, anti-mouse-POD; incubation 19 min; blank OD 0.030.
The target in assay [10] is Anti-hC5 Antibody. The assay can be described thus: sandwich ELISA: SKA antibody coated, Anti-hC5 Antibody in pooled human serum, then human C5, mouse anti-hC5, anti-mouse-POD; incubation 8 min; blank OD 0.027.
The target of assay [11] is Anti-hC5 Antibody. Nature of the assay: sandwich ELISA: SKA antibody coated, Anti-hC5 Antibody in pooled human serum, then human C5, mouse anti-hC5, anti-mouse-POD; incubation 14 min; blank OD 0.028.
Assay [12] deals with Anti-hC5 Antibody. Nature of the assay: sandwich ELISA: SKA antibody coated, Anti-hC5 Antibody in pooled human serum, then human C5, mouse anti-hC5, anti-mouse-POD; incubation 9 min; blank OD 0.028.
Assay [13] has as its target Anti-hC5 Antibody. The assay can be described thus: sandwich ELISA: SKA antibody coated, Anti-hC5 Antibody in pooled human serum, then human C5, mouse anti-hC5, anti-mouse-POD; incubation 18 min; blank OD 0.032.

Sequence of Anti-hC5 Antibody (constant, as listed by the source limits assumed): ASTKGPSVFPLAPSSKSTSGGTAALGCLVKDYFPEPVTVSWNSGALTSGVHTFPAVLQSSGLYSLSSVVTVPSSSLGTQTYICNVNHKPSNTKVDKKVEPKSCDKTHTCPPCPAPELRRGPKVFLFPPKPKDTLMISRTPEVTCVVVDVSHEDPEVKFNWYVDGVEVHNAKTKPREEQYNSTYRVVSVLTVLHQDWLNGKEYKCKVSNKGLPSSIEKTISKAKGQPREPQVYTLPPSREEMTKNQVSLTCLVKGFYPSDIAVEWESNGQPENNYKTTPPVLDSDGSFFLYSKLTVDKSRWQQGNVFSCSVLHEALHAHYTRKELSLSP

B1: SKA0117 (antibody, V domains shown)
VH: QSLEESGGDLVKPEGSLTLTCTASGFSFSSSHYMCWVRQAPGKGLEWIACIYAGSSDNTYYASWAKGRFTISKTSSTTVTLQMTSLTAADTATYFCARDTYGYVGYASAGGFFNLWGPGTLVTVSS
VL: ALVMTQTPASVSAAVGGTVTINCQASHNIYSVLAWYQQKPGQRPRLLIYGASNLESGVPSRFKGSGSGTEYTLTISDLECDDAATYYCQSAYYSSSTGDNAFGGGTEVVVKG
For the molecule B1, the Signal to noise ratio with Anti-hC5 Antibody [1] came out at 4.1. The same molecule gave an OD (Anti-hC5 Antibody spiked) with Anti-hC5 Antibody [2] of 0.112 OD.

B2: SKA0141 (antibody, V domains shown)
VH: QSLEESGGDLVKPGASLTLTCTASGFSFSSSYYMCWVRQAPGKGLEWIACIYAGSSGSTYYASWAKGRFTISKTSSTTVTLQMTSLTAADTATYFCARDGDENMLVGGYFNLWGPGTLVTVSS
VL: ALVMTQTPSSVSAAVGGTVTINCQASHNIYSNLAWYQQKPGQRPKLLIYGASNLESGVPSRFKGSGSGTEYTLTISDLECDDAATYYCQSAYYSSNAGYNAFGGGTEVVVKG
Turning to B2, the Signal to noise ratio in the assay with Anti-hC5 Antibody [1] came out at 4.2. For the same molecule, the OD (Anti-hC5 Antibody spiked) with Anti-hC5 Antibody [3] was found to be 0.109 OD.

B3: SKA0052 (antibody, V domains shown)
VH: QSLEESGGDLVKSGASLTLTCTASGFSFSSSYYMCWVRQAPGKGLEWIACIYTGSNGDTYYASWANGRFTISKASSTTVTLQMTSLTAADTATYFCARYTYDDDGDYTSFNLWGPGTLVTVSS
VL: ALVMTQTPSSVSADVGGTVTINCQASQNIYRNLAWYQQKPGQRPKLLIYGASNLEPGVPSRFKGSGSGTEFTLTISDLECDDAATYYCQSVGYSGSVDTFFYAFGGGTEVVVKG
As a reminder, the Kd is the free concentration of one partner at which half of the binding sites on the other are occupied at equilibrium, for simple one-to-one binding. Lower therefore signals tighter binding. For orientation: koff means the rate constant with which the complex falls apart. A higher koff goes with fast dissociation. Broadly, the kon is the second-order rate constant of association. Read a low kon as slow association. With B3, in the assay with Anti-hC5 Antibody [1], the Signal to noise ratio amounted to 3.7. For the same molecule, in the assay with Anti-hC5 Antibody [4], the Kd is 1.81 nM, the dissociation rate constant (koff) was 0.000196 s⁻¹ and the kon turned out to be 108000 M⁻¹ s⁻¹. Besides, the OD (Anti-hC5 Antibody spiked) with Anti-hC5 Antibody [5] was 0.098 OD.

B4: SKA0046 (antibody, V domains shown)
VH: QEQLVESGGGLVQPEGSLTLTCTASGFSLSSSNYMWWVRQAPGKGLEWIACIHASSSGDTYYANWAKGRFTISKTSSTTVTLQMTSLTAADTATYFCARGGYIYGDGGYNGVAGFSLWGPGTLVTVSS
VL: DVVMTQTPASVSEPVGGTVTIKCQASETIGNALAWYQQKPGQRPKLLIYGASNLESGVPSRFKGSGSGTEFTLTISDVQCDDAATYYCQSIYYSSSADTFFFPFGGGTEVVVKG
As for B4, the OD (Anti-hC5 Antibody spiked) with Anti-hC5 Antibody [6] came out at 0.075 OD. Besides, the Signal to noise ratio with Anti-hC5 Antibody [1] was found to be 2.3. In the assay with Anti-hC5 Antibody [4], the koff amounted to 5.17e-05 s⁻¹ and the kon was 88500 M⁻¹ s⁻¹. This molecule yielded a Kd with Anti-hC5 Antibody [7] of 0.585 nM.

B5: SKA0028 (antibody, V domains shown)
VH: QSVEESGGRLVTPGTPLTLTCTASGFTISSYHMSWVRQAPGKGLEWIGIIHGSGNMWYASWAKGRFTISRTSTTVDLEITSPTTEDTATYFCARIRFWASSNYYYFYLWGQGTLVTVSS
VL: ALVMTQTPASVSEPVGGTVTINCQASQNIYSNLAWYQQKPGQRPRLLIYGASNLESGVPSRFRGSGSGTEFTLTISDLECADAATYYCQSAYWGNNNDGAFGGGTEVVVKG
As to B5, the Signal to noise ratio in the assay with Anti-hC5 Antibody [1] stood at 3. The molecule also displayed an OD (Anti-hC5 Antibody spiked) with Anti-hC5 Antibody [8] of 0.091 OD.

B6: SKA0027 (antibody, V domains shown)
VH: QEQLVESGGGLVQPEGSLTLTCTASGFSFSSSDYMCWVRQAPGKGLEWIGCIYTGSGSTYYASWAKGRFTISKTSSTTVTLQMTSLTAADTATFFCARRGDSYSNYSFKLWGPGTLVTVSS
VL: AFELTQTPASVEAAVGGTVTIKCQASQNIYSNLAWYQQKPGQPPKLLIYTASSLASGVSSRFKGSGSGTEFTLTISDLECDDAATYYCQCTYINNGYGNTFGGGTEVVVKG
With B6, in the assay with Anti-hC5 Antibody [1], the Signal to noise ratio amounted to 3.4. In the assay with Anti-hC5 Antibody [2], the OD (Anti-hC5 Antibody spiked) turned out to be 0.093 OD.

B7: SKA0054 (antibody, V domains shown)
VH: QSLEESGGGLVQPEGSLTLTCTASGFSFSSSFWICWVRQAPGKGLEWLACIDAGSSDNTYYANWAKGRFTISKTSSTTVTLQMTSLTDADTATYFCARDRDAAGDAGYGYATSFNLWGPGTLVTVSS
VL: AIDMTQTPSSVSAAVGGTVTINCQASESIYSNLAWYQQKPGQRPKLLIYLASTLASGVPSRFKGSGSGTEFTLTISDLECADAATYYCQSVYYDSRGDTFFWAFGGGTEVVVKG
For B7, the OD (Anti-hC5 Antibody spiked) with Anti-hC5 Antibody [9] stood at 0.077 OD. Further, in the assay with Anti-hC5 Antibody [1], the Signal to noise ratio was 2.6. In the assay with Anti-hC5 Antibody [4], this molecule registered a dissociation constant (Kd) of 7.22 nM, an off-rate (koff) of 0.000197 s⁻¹ and an on-rate (kon) of 27300 M⁻¹ s⁻¹.

B8: SKA0016 (antibody, V domains shown)
VH: QEQLVESGGGLVQPEGSLTLTCTASGFSFSSSDYMCWVRQAPGKGLEWIACIYIGSNGDTFYASWAKGRFTISKTSSTTVTLQMTSLTAADTATYFCARDSRRADDYGTRLDLWGQGTLVTVSS
VL: DIVMTQTPSSVSAAVGGTVTIKCQASQNIYRNLAWYQQKPGQPPKLLIYQASKLESGVPSRFKGSGSGTEFTLTISDLDCDDAASYYCQSISYISSGDTFFWAFGGGTEVVVKG
Regarding B8, in the assay with Anti-hC5 Antibody [1], the Signal to noise ratio was found to be 2.5. In the assay with Anti-hC5 Antibody [8], the OD (Anti-hC5 Antibody spiked) is 0.076 OD. Moreover, in the assay with Anti-hC5 Antibody [4], the kon came to 30900 M⁻¹ s⁻¹. Besides, in the assay with Anti-hC5 Antibody [7], the Kd is 0.0191 nM and the off-rate constant (koff) worked out at 5.9e-07 s⁻¹.

B9: SKA0171 (antibody, V domains shown)
VH: QSLEESGGGLVQPEGSLTLSCTASGFSFSSSYYMCWVRQAPGKGLEWIACIYGGNSVITYYANWAKGRFTISETSSTTVTLQMTSLTAADTATYFCAREVHYDYLYTTYGYANLWGPGTLVTVSS
VL: AIKMTQTPASVSAVVGGTVTINCQASETIYSGLAWYQQKPGQPPKLLIYDTANLETGVSSRFKGSGSGTEYTLTISDLECDDAATYFCLYAYYSGGSADNAFGGGTEVVVKG
In the assay with Anti-hC5 Antibody [10], B9 yielded an OD (Anti-hC5 Antibody spiked) of 0.106 OD. In the assay with Anti-hC5 Antibody [1], the Signal to noise ratio came out at 4.

B10: SKA0127 (antibody, V domains shown)
VH: QSVEESGGRLVTPGTPLTLTCTVSGIDLSTYAMTWVRQAPGKGLEYIGYINGGGSAYYASWVNGRFTISKTSTTADLKITSPTTEDTATYFCARGPVGSYHRIWGPGTLVTVSS
VL: ALVMTQTPSSVSEPVGGTVTINCRASEDIESYLAWYQQKPGQPPKLLIYATSNLETGVPSRFKGSGSGTDYTLTISGVQCADAATYYCQGYYELSSIDNNAFGGGTEVVVKG
For the molecule B10, the Signal to noise ratio with Anti-hC5 Antibody [1] was 2.8. In addition, the OD (Anti-hC5 Antibody spiked) in the assay with Anti-hC5 Antibody [11] came to 0.078 OD. In the assay with Anti-hC5 Antibody [4], this molecule came in with a dissociation constant Kd of 3.54 nM, a koff of 0.000254 s⁻¹ and a kon of 71800 M⁻¹ s⁻¹.

B11: SKA0009 (antibody, V domains shown)
VH: QSVEESGGRLVTPGTSLTLTCTVSGIDLSSYGMGWVRQAPGMGLEYIGIIYAAGRTYYASWVKGRFIISKTSTTVDLEMTSLTTEDTATYFCARHGSWYAGMDLWGPGTLVTVSS
VL: AIEMTQTPSPVSAAVGGTVSINCQASEDIENYFAWYQQKPGQPPKLLIYDASELASGVPSRFSGSGSGTDFTLTISGVQCDDAATYYCQHADYAASSENTFGGGTEVVVKG
As to B11, in the assay with Anti-hC5 Antibody [1], the Signal to noise ratio is 3.2. For the same molecule, the on-rate (kon) with Anti-hC5 Antibody [4] was 76900 M⁻¹ s⁻¹. Besides, in the assay with Anti-hC5 Antibody [12], the OD (Anti-hC5 Antibody spiked) came out at 0.089 OD. In addition, in the assay with Anti-hC5 Antibody [7], the dissociation constant (Kd) is 0.0184 nM and the off-rate (koff) was found to be 1.41e-06 s⁻¹.

B12: SKA0001 (antibody, V domains shown)
VH: QSVEESGGRLVTPGTPLTLTCTVSGFSLSYYAMNWVRQAPGKGLEWIGIIGISGGTYYASWAKGRFTISKSSSTTVDLKMTSPTTEDTATYFCARGGSAWGDLWGQGTLVTVSS
VL: DIVMTQTPSSVSAAVGGTVTINCQASQSISRLLAWYQQKPGQPPKVLMHDASDLASGVPSRFKGSGSGTEYTLTISDLECADAATYYCQSYYWGSSGDIGYPFGGGTEVVVKG
Consider B12, for which the Signal to noise ratio in the assay with Anti-hC5 Antibody [1] stood at 2.5. The OD (Anti-hC5 Antibody spiked) in the assay with Anti-hC5 Antibody [13] came to 0.079 OD.
